Measurements as given in US12049482B2, “Molecular switch-mediated control of engineered cells” (THE GENERAL HOSPITAL CORPORATION, priority 2017, dated 2024).
Entries after “also recorded” stand apart in the source; their conditions may differ.

Experiments:
CRBN [1] = molecular target: T1, CRBN (Homo sapiens, UniProt Q96SW2); conditions: in vitro; cited from earlier work
CRL4^CRBN = molecular target: T2, CRL4^CRBN (Homo sapiens, UniProt Q96SW2); assay: GFP/mCherry reporter assay for degradation of degron-eGFP fusion proteins in Jurkat T cells; assay type: cell-based
T2 construct: endogenous in cells; host or cells: Jurkat T cells (ligase endogenous; degron-eGFP reporters lentivirally transduced)
Description: First, the FMC63 anti-CD19 scFv was exchanged for the CD28 Ig-like V-type extracellular domain. […] Experiments were performed in triplicate.
[…] Cells were analyzed by flow cytometry for eGFP and mCherry fluorescence. 1000 mCherry+ cells were analyzed per sample, and the geometric mean of the per-cell eGFP/mCherry ratio was calculated in Flowjo. In Pomalidomide dose titration studies, the EC50 was calculated by non-linear regression in Prism. Experiments were performed in triplicate. In some cases cell surface protein expression was assayed in parallel with the above reporter assay; cells were stained with anti-CD28-BV421 antibody (BD Biosciences 562613) at a 1:50 dilution in FACS buffer (PBS+2% FCS+2 mM EDTA) for 10 minutes on ice. Cells were washed with FACS buffer and analyzed by flow cytometry.
First, the FMC63 anti-CD19 scFv was exchanged for the CD28 Ig-like V-type extracellular domain.

K562-CD19 cells = assay: Jurkat degron-tagged CAR-T co-culture with K562-CD19 (Myc-tag, CD69, IL2); assay type: cell-based, human
Description: 100,000 CAR-T Jurkat cells were co-cultured with 20,000 K562 or K562-CD19 cells for 18 hours.
Jurkat T cells lentivirally transduced with the genetic components described herein were co-cultured for 24 hours with K562 cells (human blast crisis Chronic Myeloid Leukemia cell line) lentivirally transduced with an expression vector encoding CD19 (referred to as K562-CD19) (G&P Biosciences LTV-CD19) or isogenic K562 cells lacking the target antigen. Both K562-CD19 and K562 cell lines were engineered to express homogenous high level mCherry expression via transduction with the Jenner lentivirus, allowing discrimination of K562 and Jurkat cells by flow cytometry. Unless otherwise specified, 50,000 Jurkat cells were co-cultured with 10,000 K562 cells in 110 ul of RPMI supplemented with Pen/Strep and 10% fetal calf serum for 24 hours. The supernatant was then harvested for cytokine secretion assays and IL2 concentration in the supernatant was performed according to manufacturer specifications (BD Biosciences 555190). The cells were analyzed by flow cytometry. Expression of the early activation marker CD69 (BioLegend 310910), myc tagged cell surface proteins (Cell Signaling Technologies 2233S), and fluorescent protein markers were assessed.

CRBN [2] = molecular target: T1, CRBN; assay: Pomalidomide-dependent degradation of IKZF3 degron with A153 substitutions; assay type: cell-based; design: endogenous in cells; conditions: wtCRBN-expressing cells, pomalidomide dose-response
Description: Transduced cells were incubated with a range of Pomalidomide concentrations or DMSO for 20 hours. Cells were analyzed by flow cytometry for eGFP and mCherry fluorescence. 1000 mCherry+ cells were analyzed per sample, and the geometric mean of the per-cell eGFP/mCherry ratio was calculated in Flowjo. In Pomalidomide dose titration studies, the EC50 was calculated by non-linear regression in Prism. Experiments were performed in triplicate. In some cases cell surface protein expression was assayed in parallel with the above reporter assay; cells were stained with anti-CD28-BV421 antibody (BD Biosciences 562613) at a 1:50 dilution in FACS buffer (PBS+2% FCS+2 mM EDTA) for 10 minutes on ice. Cells were washed with FACS buffer and analyzed by flow cytometry.

IKZF3aa130-189 = assay: BRET assay, dimerization of IKZF3aa130-189 with CRBN or minCRBN variants; assay type: cell-based, human; conditions: pomalidomide dose-response
Description: Specifically, CRBN deletion variants were engineered to retain binding to Pom/IKZF3 but not DDB1/CUL4. Four deletion variants were generated in CRBN that removed the DDB1-binding domain, as shown in the middle image (NTD is the N-terminal domain; LLP1 is Lon-like protease domain 1 (split into LLP1-N and LLP1-C regions); TBD is the Thalidomide binding domain). At middle, BRET assays were performed upon 293T cells harboring bialleleic CRISPR/Cas9 disruption of endogenous CRBN (293T-CRBNΔe5), to assess dimerization between IKZF3aa130-189 and CRBN or minCRBN variants (dose-response data shown are CRBN, minCRBN1, minCRBN2, minCRBN3 and minCRBN4). […] Pomalidomide-dependent dimerization was observed between IKZF3aa130-189-HaloTag and CRBN-Nanoluciferase (NLuc) or minCRBN2-4-NLuc. […] 1 day after transfection, cells were exposed to 1 μM pomalidomide for the number of hours indicated and GFP and mCherry fluorescence was measured by flow cytometry (eGFPmCherry levels were detected as 0.5 or less for the CRBN trace).
(§1) 293T cells were co-transfected with pFC14K and pFC32K plasmids expressing IKZF3-HaloTag and CRBN-Nanoluciferase fusion proteins and incubated overnight. Cells were then trypsinized and seeded into 96 well plates, at 40,000 cells per well. The BRET assay was performed per manufacturer's instructions (Promega™). In brief, cells were incubated for 2 hours with varying concentrations of Pomalidomide or DMSO, 10 μM MG132, and 100 nM HaloTag NanoBRET 618 Ligand. NanoBRET Nano-Glo substrate was added and donor (460 nm) and acceptor (618 nm) emission were measured within 10 minutes (EnVision, Perkin Elmer). Mean corrected milliBRET units (mBU) was calculated.
Tested forms of minimal CRBN included minCRBN1, minCRBN2, minCRBN3 and minCRBN4, each of which were aligned against the wild-type CRBN (FIG. 1; all tested minCRBNs lacked the DDB1-binding domain—minCRBN1 comprised amino acids 339-442 of CRBN (including the TBD); minCRBN2 comprised amino acids 317-442 of CRBN (including TBD and an N-terminal extended sequence relative to minCRBN1); minCRBN3 included all CRBN sequence other than amino acids 194-207 (deletion of the DDB1-binding domain); and minCRBN4 included all sequences other than amino acids 187-260 (deletion of the DDB1-binding domain)).

IKZF3 degron-GFP = assay: eGFP/mCherry reporter, IKZF3 degron degradation with co-transfected CRBN or minCRBN1-4 in 293T-CRBNΔe5 cells; assay type: cell-based, human; conditions: 1 μM pomalidomide, time course in hours, 293T-CRBNΔe5 cells
Description: Specifically, CRBN deletion variants were engineered to retain binding to Pom/IKZF3 but not DDB1/CUL4. Four deletion variants were generated in CRBN that removed the DDB1-binding domain, as shown in the middle image (NTD is the N-terminal domain; LLP1 is Lon-like protease domain 1 (split into LLP1-N and LLP1-C regions); TBD is the Thalidomide binding domain). At middle, BRET assays were performed upon 293T cells harboring bialleleic CRISPR/Cas9 disruption of endogenous CRBN (293T-CRBNΔe5), to assess dimerization between IKZF3aa130-189 and CRBN or minCRBN variants (dose-response data shown are CRBN, minCRBN1, minCRBN2, minCRBN3 and minCRBN4). […] 1 day after transfection, cells were exposed to 1 μM pomalidomide for the number of hours indicated and GFP and mCherry fluorescence was measured by flow cytometry (eGFPmCherry levels were detected as 0.5 or less for the CRBN trace).
Transduced cells were incubated with a range of Pomalidomide concentrations or DMSO for 20 hours. Cells were analyzed by flow cytometry for eGFP and mCherry fluorescence. 1000 mCherry+ cells were analyzed per sample, and the geometric mean of the per-cell eGFP/mCherry ratio was calculated in Flowjo. In Pomalidomide dose titration studies, the EC50 was calculated by non-linear regression in Prism. […] Cells were washed with FACS buffer and analyzed by flow cytometry.

IKZF3 A153M = assay: BRET, IKZF3 A153 substitutions with CRBN, CRBN V388A or CRBN I371A; assay type: cell-based, human; conditions: 293T cells, 2 hours
Description: as §1

IKZF3aa130-189, sequence (Q9UKT9 130-189 limits assumed, one chain of several): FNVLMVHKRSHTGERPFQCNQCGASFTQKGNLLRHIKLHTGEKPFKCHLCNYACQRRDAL
IKZF3 A153M, sequence (Q9UKT9 130-189 A153M limits assumed): as the sequence (Q9UKT9 130-189 limits assumed, one chain of several) above, with A24M counted along it
IKZF3 degron-GFP, sequence (Q9UKT9 130-189 limits assumed, one chain of several): as the sequence (Q9UKT9 130-189 limits assumed, one chain of several) above
T2 sequence (Q16531 whole entry partner, one chain of several, the tested form may be a part): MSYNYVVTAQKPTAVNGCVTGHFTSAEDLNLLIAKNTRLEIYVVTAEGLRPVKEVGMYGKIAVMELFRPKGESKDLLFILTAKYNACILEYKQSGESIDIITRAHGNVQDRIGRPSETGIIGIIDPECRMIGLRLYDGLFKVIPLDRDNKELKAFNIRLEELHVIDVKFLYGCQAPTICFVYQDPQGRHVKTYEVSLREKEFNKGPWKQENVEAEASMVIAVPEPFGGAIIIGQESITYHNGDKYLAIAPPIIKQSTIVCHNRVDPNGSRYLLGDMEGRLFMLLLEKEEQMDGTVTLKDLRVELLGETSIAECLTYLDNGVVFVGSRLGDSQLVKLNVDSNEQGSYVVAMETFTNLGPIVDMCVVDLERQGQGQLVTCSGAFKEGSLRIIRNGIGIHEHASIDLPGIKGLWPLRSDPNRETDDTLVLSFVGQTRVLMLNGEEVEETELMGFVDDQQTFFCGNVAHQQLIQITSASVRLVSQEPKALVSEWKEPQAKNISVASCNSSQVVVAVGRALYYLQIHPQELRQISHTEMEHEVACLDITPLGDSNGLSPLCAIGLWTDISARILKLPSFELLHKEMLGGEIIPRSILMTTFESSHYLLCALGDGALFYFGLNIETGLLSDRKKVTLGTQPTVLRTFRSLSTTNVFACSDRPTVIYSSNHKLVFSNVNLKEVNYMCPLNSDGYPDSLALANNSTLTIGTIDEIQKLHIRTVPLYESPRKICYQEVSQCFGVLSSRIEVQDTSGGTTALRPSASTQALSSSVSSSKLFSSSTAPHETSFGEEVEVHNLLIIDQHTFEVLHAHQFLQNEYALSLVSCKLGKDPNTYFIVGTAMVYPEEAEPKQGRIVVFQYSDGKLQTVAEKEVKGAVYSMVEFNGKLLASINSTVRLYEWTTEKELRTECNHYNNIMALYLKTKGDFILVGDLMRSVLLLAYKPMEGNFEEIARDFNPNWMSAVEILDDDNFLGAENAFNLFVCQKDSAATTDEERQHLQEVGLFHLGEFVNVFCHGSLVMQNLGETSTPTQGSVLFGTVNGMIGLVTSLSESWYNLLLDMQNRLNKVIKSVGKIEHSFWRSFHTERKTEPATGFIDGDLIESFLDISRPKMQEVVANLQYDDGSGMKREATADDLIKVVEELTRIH
T2 sequence (Q13619 whole entry partner, one chain of several, the tested form may be a part): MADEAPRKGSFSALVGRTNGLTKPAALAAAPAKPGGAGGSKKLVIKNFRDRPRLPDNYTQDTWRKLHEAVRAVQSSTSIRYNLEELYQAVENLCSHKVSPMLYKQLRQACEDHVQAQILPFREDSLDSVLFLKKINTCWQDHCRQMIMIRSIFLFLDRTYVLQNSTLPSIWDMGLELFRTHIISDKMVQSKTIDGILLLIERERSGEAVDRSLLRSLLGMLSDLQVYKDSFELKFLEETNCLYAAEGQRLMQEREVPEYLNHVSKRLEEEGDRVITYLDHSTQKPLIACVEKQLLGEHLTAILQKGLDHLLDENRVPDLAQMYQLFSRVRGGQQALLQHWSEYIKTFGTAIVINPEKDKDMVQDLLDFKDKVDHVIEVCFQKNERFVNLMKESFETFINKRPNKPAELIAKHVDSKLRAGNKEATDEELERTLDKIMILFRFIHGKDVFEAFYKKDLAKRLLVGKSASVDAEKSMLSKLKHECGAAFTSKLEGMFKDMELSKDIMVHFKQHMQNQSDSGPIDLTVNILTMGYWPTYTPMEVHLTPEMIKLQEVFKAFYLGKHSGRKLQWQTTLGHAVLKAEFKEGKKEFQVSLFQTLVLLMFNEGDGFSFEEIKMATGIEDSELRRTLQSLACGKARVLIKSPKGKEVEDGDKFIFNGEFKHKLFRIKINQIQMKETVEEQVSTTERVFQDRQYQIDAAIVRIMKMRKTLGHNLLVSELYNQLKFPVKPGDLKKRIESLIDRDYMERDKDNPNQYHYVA
T2 sequence (P62877 whole entry partner, one chain of several, the tested form may be a part): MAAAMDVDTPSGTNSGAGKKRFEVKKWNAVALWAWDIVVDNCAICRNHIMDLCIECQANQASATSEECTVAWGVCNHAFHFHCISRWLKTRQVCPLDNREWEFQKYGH
T2 sequence (Q9UKT9 130-189 partner limits assumed, one chain of several): as the sequence (Q9UKT9 130-189 limits assumed, one chain of several) above

Nc1cccc2c1C(=O)N(C1CCC(=O)NC1=O)C2=O (stereo not shown) [pomalidomide, Pomalidomide]
binding to CRBN (CRBN [1]): binds to CRBN in vitro

degron: IKZF3 degron polypeptide, amino acids 130-189, SEQ ID NO: 5, as eGFP fusion
degradation of degron-eGFP protein (CRL4^CRBN; by 1 hour after addition of 1 μM pomalidomide): ~90% | EC50 (CRL4^CRBN; nM pomalidomide, Jurkat T cells): 0.4 nM

d913: Hybrid degron, IKZF3 aa 130-145 + ZFP91 aa 400-410 + IKZF3 aa 157-189, SEQ ID NO: 95 (FNVLMVHKRSHTGERPLQCEICGFTCRQKGNLLRHIKLHTGEKPFKCHLCNYACQRRDAL)
drug control over CAR protein expression, activation and IL2 secretion (K562-CD19 cells; Jurkat CAR-T with K562 or K562-CD19, 18 hours): more robust control over CAR protein expression, activation, and cytokine secretion than the endogenous IKZF3 degron | cell surface CAR expression (anti-Myc tag) (K562-CD19 cells; Jurkat T cells, no drug (tonic)): lower tonic CAR cell surface protein abundance versus the control CAR

IKZF3 A153M: IKZF3 degron polypeptide, amino acids 130-189 A153M, SEQ ID NO: 36
pomalidomide-dependent degradation of substituted IKZF3 degron (CRBN [2]): disrupted binding and degradation by CRBN

O=C1CCC(N2C(=O)c3ccccc3C2=O)C(=O)N1 (stereo not shown) [thalidomide, Thalidomide]
binding to CRBN (CRBN [1]): binds to CRBN in vitro

A153D: IKZF3 degron polypeptide, amino acids 130-189 A153D, SEQ ID NO: 43
pomalidomide-dependent degradation of substituted IKZF3 degron (CRBN [2]): most effective at disrupting pomalidomide-dependent IKZF3 degron degradation

B1: minCRBN1: Minimal CRBN, amino acids 339-442 of CRBN (including the TBD), SEQ ID NO: 1 (protein)
chain: SLSLCGPMAAYVNPHGYVHETLTVYKACNLNLIGRPSTEHSWFPGYAWTVAQCKICASHIGWKFTATKKDMSPQKFWGLTRSALLPTIPDTEDEISPDKVILCL
pomalidomide-dependent dimerization with IKZF3 degron (mBU) (IKZF3aa130-189): dose-dependence was only not observed

B2: CRBN: Native Homo sapiens CRBN polypeptide, SEQ ID NO: 6; positive control (protein, listed as Homo sapiens)
chain: MAGEGDQQDAAHNMGNHLPLLPAESEEEDEMEVEDQDSKEAKKPNIINFDTSLPTSHTYLGADMEEFHGRTLHDDDSCQVIPVLPQVMMILIPGQTLPLQLFHPQEVSMVRNLIQKDRTFAVLAYSNVQEREAQFGTTAEIYAYREEQDFGIEIVKVKAIGRQRFKVLELRTQSDGIQQAKVQILPECVLPSTMSAVQLESLNKCQIFPSKPVSREDQCSYKWWQKYQKRKFHCANLTSWPRWLYSLYDAETLMDRIKKQLREWDENLKDDSLPSNPIDFSYRVAACLPIDDVLRIQLLKIGSAIQRLRCELDIMNKCTSLCCKQCQETEITTKNEIFSLSLCGPMAAYVNPHGYVHETLTVYKACNLNLIGRPSTEHSWFPGYAWTVAQCKICASHIGWKFTATKKDMSPQKFWGLTRSALLPTIPDTEDEISPDKVILCL
pomalidomide-dependent dimerization with IKZF3 degron (mBU) (IKZF3aa130-189): pomalidomide-dependent interactions | eGFP/mCherry level of IKZF3 degron-GFP reporter (IKZF3 degron-GFP): ≤ 0.5 | eGFP/mCherry level of IKZF3 degron-GFP reporter (IKZF3 degron-GFP; listed as wild-type CRBN): successfully promoted degradation of the IKZF3 degron

B3: CRBN V388A: CRBN polypeptide with V388A substitution (protein, UniProt Q96SW2 1-442, looked up, variant V388A)
Protein cereblon: MAGEGDQQDAAHNMGNHLPLLPAESEEEDEMEVEDQDSKEAKKPNIINFDTSLPTSHTYLGADMEEFHGRTLHDDDSCQVIPVLPQVMMILIPGQTLPLQLFHPQEVSMVRNLIQKDRTFAVLAYSNVQEREAQFGTTAEIYAYREEQDFGIEIVKVKAIGRQRFKVLELRTQSDGIQQAKVQILPECVLPSTMSAVQLESLNKCQIFPSKPVSREDQCSYKWWQKYQKRKFHCANLTSWPRWLYSLYDAETLMDRIKKQLREWDENLKDDSLPSNPIDFSYRVAACLPIDDVLRIQLLKIGSAIQRLRCELDIMNKCTSLCCKQCQETEITTKNEIFSLSLCGPMAAYVNPHGYVHETLTVYKACNLNLIGRPSTEHSWFPGYAWTAAQCKICASHIGWKFTATKKDMSPQKFWGLTRSALLPTIPDTEDEISPDKVILCL
pomalidomide-dependent binding with IKZF3 A153M (IKZF3 A153M; 10 μM MG132, 1 μM pomalidomide and dose-response): restored binding affinity with IKZF3 A153M; also recorded: greatest restoration of pomalidomide-dependent binding | mBU fold change at 1 μM Pomalidomide/DMSO (IKZF3 A153M; 10 μM MG132, mutant versus wild type CRBN): increased the mBU fold change versus wild type CRBN

B4: minCRBN2: Minimal CRBN, amino acids 317-442 of CRBN, SEQ ID NO: 2 (protein)
chain: CTSLCCKQCQETEITTKNEIFSLSLCGPMAAYVNPHGYVHETLTVYKACNLNLIGRPSTEHSWFPGYAWTVAQCKICASHIGWKFTATKKDMSPQKFWGLTRSALLPTIPDTEDEISPDKVILCL
pomalidomide-dependent dimerization with IKZF3 degron (mBU) (IKZF3aa130-189): pomalidomide-dependent interactions

B5: minCRBN4: All CRBN sequences other than amino acids 187-260 (deletion of the DDB1-binding domain), SEQ ID NO: 4 (protein)
chain: MAGEGDQQDAAHNMGNHLPLLPESEEEDEMEVEDQDSKEAKKPNIINFDTSLPTSHTYLGADMEEFHGRTLHDDDSCQVIPVLPQVMMILIPGQTLPLQLFHPQEVSMVRNLIQKDRTFAVLAYSNVQEREAQFGTTAEIYAYREEQDFGIEIVKVKAIGRQRFKVLELRTQSDGIQQAKVQILPLREWDENLKDDSLPSNPIDFSYRVAACLPIDDVLRIQLLKIGSAIQRLRCELDIMNKCTSLCCKQCQETEITTKNEIFSLSLCGPMAAYVNPHGYVHETLTVYKACNLNLIGRPSTEHSWFPGYAWTVAQCKICASHIGWKFTATKKDMSPQKFWGLTRSALLPTIPDTEDEISPDKVILCL
pomalidomide-dependent dimerization with IKZF3 degron (mBU) (IKZF3aa130-189): pomalidomide-dependent interactions
